# Measurements as given in PMC10786891, “Massively parallel profiling of RNA-targeting CRISPR-Cas13d”.
# T1: EsCas13d, nuclease-dead (Eubacterium siraeum, UniProt B0MS50, R295A;H300A;R849A;H854A)
# T1 sequence: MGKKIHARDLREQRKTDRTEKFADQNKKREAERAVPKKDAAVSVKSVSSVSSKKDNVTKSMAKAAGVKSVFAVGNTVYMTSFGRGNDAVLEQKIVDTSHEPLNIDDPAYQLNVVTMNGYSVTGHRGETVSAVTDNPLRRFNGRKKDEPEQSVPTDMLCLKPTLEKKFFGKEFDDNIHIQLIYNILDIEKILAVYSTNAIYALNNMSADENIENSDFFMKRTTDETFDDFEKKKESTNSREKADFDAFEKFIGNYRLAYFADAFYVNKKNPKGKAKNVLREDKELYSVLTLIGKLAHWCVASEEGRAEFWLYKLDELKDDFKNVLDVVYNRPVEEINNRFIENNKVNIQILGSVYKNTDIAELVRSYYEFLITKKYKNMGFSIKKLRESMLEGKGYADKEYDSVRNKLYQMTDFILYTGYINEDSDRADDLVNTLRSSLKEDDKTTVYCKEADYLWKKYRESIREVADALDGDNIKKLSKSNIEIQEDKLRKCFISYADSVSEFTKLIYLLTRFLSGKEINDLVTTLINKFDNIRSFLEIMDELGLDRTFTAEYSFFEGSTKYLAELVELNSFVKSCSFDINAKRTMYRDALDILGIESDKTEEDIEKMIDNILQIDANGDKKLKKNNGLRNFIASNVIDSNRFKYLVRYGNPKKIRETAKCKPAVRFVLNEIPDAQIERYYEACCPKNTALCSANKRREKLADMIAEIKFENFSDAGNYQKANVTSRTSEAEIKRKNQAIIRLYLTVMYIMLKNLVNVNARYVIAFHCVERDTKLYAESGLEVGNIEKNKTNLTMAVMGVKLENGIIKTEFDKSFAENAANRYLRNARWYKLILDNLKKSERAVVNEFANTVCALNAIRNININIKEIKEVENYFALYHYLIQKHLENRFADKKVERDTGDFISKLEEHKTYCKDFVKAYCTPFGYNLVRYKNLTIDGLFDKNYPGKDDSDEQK
# Target: T1, EsCas13d, nuclease-dead
# Test: crRNA (strand 1, pre-loaded); Mg2+; 40 mM Tris-HCl pH 7.5, 150 mM NaCl, 6 mM MgCl2, 1 mM DTT, 0.1% Tween-20, 0.2 mg/ml BSA; 25 C; 10 min per concentration, then washed
# Details: tags: His6-TwinStrep-SUMO cleaved; N-terminal SNAP kept (SNAP-Surface 488); label: 3' end held by stalled T7 RNA polymerase
row,Binder,Kd
1,"target 1 C2G,A18U (mixed) RNA 1: CACCCGUGCAAAAAUGCAGGGGUCUAAAACUGAGCGGAUAACCUCUCUAUGG RNA 2: GGGAAUGGAUCCACAUCUACGAAUUCGUACCAUUGAGAGGUUAUCCGCUGACCGAGAUCGGAAGAGCACACGU",17 ± 1.7 nM
2,"target 1 insA 3' of 22,insA 3' of 19 (mixed) RNA 1: CACCCGUGCAAAAAUGCAGGGGUCUAAAACUGAGCGGAUAACCUCUCUAUGG RNA 2: GGGAAUGGAUCCACAUCUACGAAUUCGUACACAUAAGAGAGGUUAUCCGCUCACCGAGAUCGGAAGAGCACACGU",38 ± 4 nM
3,"target 1 insC 3' of 22,insG 3' of 19 (mixed) RNA 1: CACCCGUGCAAAAAUGCAGGGGUCUAAAACUGAGCGGAUAACCUCUCUAUGG RNA 2: GGGAAUGGAUCCACAUCUACGAAUUCGUACCCAUGAGAGAGGUUAUCCGCUCACCGAGAUCGGAAGAGCACACGU",64 ± 15 nM
4,"target 1 A1U,G17U (mixed) RNA 1: CACCCGUGCAAAAAUGCAGGGGUCUAAAACUGAGCGGAUAACCUCUCUAUGG RNA 2: GGGAAUGGAUCCACAUCUACGAAUUCGUACCAUAUAGAGGUUAUCCGCUCUCCGAGAUCGGAAGAGCACACGU",18.8 ± 1.5 nM
5,"target 3 G3C,U22C (mixed) RNA 1: CACCCGUGCAAAAUUGCAGGGGUCUAAAACGACCUGAAUAUUUCAGAUCAAA RNA 2: GGGAAUGGAUCCACAUCUACGAAUUCGUUCUUGAUCUGAAAUAUUCAGCUCUGCAGAUCGGAAGAGCACACGU",28 ± 4 nM
6,"target 3 insA 3' of 6,insC 3' of 2 (mixed) RNA 1: CACCCGUGCAAAAUUGCAGGGGUCUAAAACGACCUGAAUAUUUCAGAUCAAA RNA 2: GGGAAUGGAUCCACAUCUACGAAUUCGUUUUUGAUCUGAAAUAUUCAAGGUCCUGCAGAUCGGAAGAGCACACGU",35 ± 9 nM
7,"target 3 insU 3' of 11,insA 3' of 7 (mixed) RNA 1: CACCCGUGCAAAAUUGCAGGGGUCUAAAACGACCUGAAUAUUUCAGAUCAAA RNA 2: GGGAAUGGAUCCACAUCUACGAAUUCGUUUUUGAUCUGAAAUUAUUACAGGUCUGCAGAUCGGAAGAGCACACGU",100 ± 20.5 nM
8,"target 3 insG 3' of 9,insC 3' of 4 (mixed) RNA 1: CACCCGUGCAAAAUUGCAGGGGUCUAAAACGACCUGAAUAUUUCAGAUCAAA RNA 2: GGGAAUGGAUCCACAUCUACGAAUUCGUUUUUGAUCUGAAAUAGUUCAGCGUCUGCAGAUCGGAAGAGCACACGU",~102 nM
9,target 3 insA 3' of 3 (mixed) RNA 1: CACCCGUGCAAAAUUGCAGGGGUCUAAAACGACCUGAAUAUUUCAGAUCAAA RNA 2: GGGAAUGGAUCCACAUCUACGAAUUCGUUUUUGAUCUGAAAUAUUCAGGAUCUGCAGAUCGGAAGAGCACACGU,25.1 ± 3.45 nM
10,"target 3 G3A,C6U (mixed) RNA 1: CACCCGUGCAAAAUUGCAGGGGUCUAAAACGACCUGAAUAUUUCAGAUCAAA RNA 2: GGGAAUGGAUCCACAUCUACGAAUUCGUUUUUGAUCUGAAAUAUUUAGAUCUGCAGAUCGGAAGAGCACACGU",42 ± 5 nM
11,"target 3 G3U,U22C (mixed) RNA 1: CACCCGUGCAAAAUUGCAGGGGUCUAAAACGACCUGAAUAUUUCAGAUCAAA RNA 2: GGGAAUGGAUCCACAUCUACGAAUUCGUUCUUGAUCUGAAAUAUUCAGUUCUGCAGAUCGGAAGAGCACACGU",28.4 ± 5.25 nM
12,"target 3 U8A,U22A (mixed) RNA 1: CACCCGUGCAAAAUUGCAGGGGUCUAAAACGACCUGAAUAUUUCAGAUCAAA RNA 2: GGGAAUGGAUCCACAUCUACGAAUUCGUUAUUGAUCUGAAAUAAUCAGGUCUGCAGAUCGGAAGAGCACACGU",110 ± 38.5 nM
13,"target 3 insG 3' of 11,insU 3' of 3 (mixed) RNA 1: CACCCGUGCAAAAUUGCAGGGGUCUAAAACGACCUGAAUAUUUCAGAUCAAA RNA 2: GGGAAUGGAUCCACAUCUACGAAUUCGUUUUUGAUCUGAAAGUAUUCAGGUUCUGCAGAUCGGAAGAGCACACGU",96 ± 21.5 nM
14,"target 3 insA 3' of 21,insG 3' of 5 (mixed) RNA 1: CACCCGUGCAAAAUUGCAGGGGUCUAAAACGACCUGAAUAUUUCAGAUCAAA RNA 2: GGGAAUGGAUCCACAUCUACGAAUUCGUUUUAUGAUCUGAAAUAUUCAGGGUCUGCAGAUCGGAAGAGCACACGU",71 ± 33.5 nM
15,"target 3 insA 3' of 22,insA 3' of 6 (mixed) RNA 1: CACCCGUGCAAAAUUGCAGGGGUCUAAAACGACCUGAAUAUUUCAGAUCAAA RNA 2: GGGAAUGGAUCCACAUCUACGAAUUCGUUUAUUGAUCUGAAAUAUUCAAGGUCUGCAGAUCGGAAGAGCACACGU",11.1 ± 0.85 nM
16,"target 3 G3U,A18G (mixed) RNA 1: CACCCGUGCAAAAUUGCAGGGGUCUAAAACGACCUGAAUAUUUCAGAUCAAA RNA 2: GGGAAUGGAUCCACAUCUACGAAUUCGUUUUUGGUCUGAAAUAUUCAGUUCUGCAGAUCGGAAGAGCACACGU",34.4 ± 3.25 nM
17,"target 3 U7G,U8G (mixed) RNA 1: CACCCGUGCAAAAUUGCAGGGGUCUAAAACGACCUGAAUAUUUCAGAUCAAA RNA 2: GGGAAUGGAUCCACAUCUACGAAUUCGUUUUUGAUCUGAAAUAGGCAGGUCUGCAGAUCGGAAGAGCACACGU",48.5 ± 9 nM
18,"target 3 insU 3' of 5,insU 3' of 3 (mixed) RNA 1: CACCCGUGCAAAAUUGCAGGGGUCUAAAACGACCUGAAUAUUUCAGAUCAAA RNA 2: GGGAAUGGAUCCACAUCUACGAAUUCGUUUUUGAUCUGAAAUAUUCAUGGUUCUGCAGAUCGGAAGAGCACACGU",4.35 ± 0.375 nM
19,"target 3 insU 3' of 22,insC 3' of 2 (mixed) RNA 1: CACCCGUGCAAAAUUGCAGGGGUCUAAAACGACCUGAAUAUUUCAGAUCAAA RNA 2: GGGAAUGGAUCCACAUCUACGAAUUCGUUUUUUGAUCUGAAAUAUUCAGGUCCUGCAGAUCGGAAGAGCACACGU",76.5 ± 24.5 nM
20,"target 3 insU 3' of 6,insG 3' of 2 (mixed) RNA 1: CACCCGUGCAAAAUUGCAGGGGUCUAAAACGACCUGAAUAUUUCAGAUCAAA RNA 2: GGGAAUGGAUCCACAUCUACGAAUUCGUUUUUGAUCUGAAAUAUUCUAGGUGCUGCAGAUCGGAAGAGCACACGU",28 ± 5 nM
21,"target 3 insG 3' of 7,insC 3' of 5 (mixed) RNA 1: CACCCGUGCAAAAUUGCAGGGGUCUAAAACGACCUGAAUAUUUCAGAUCAAA RNA 2: GGGAAUGGAUCCACAUCUACGAAUUCGUUUUUGAUCUGAAAUAUUGCACGGUCUGCAGAUCGGAAGAGCACACGU",24.4 ± 2.85 nM
22,"target 3 insU 3' of 13,insG 3' of 6 (mixed) RNA 1: CACCCGUGCAAAAUUGCAGGGGUCUAAAACGACCUGAAUAUUUCAGAUCAAA RNA 2: GGGAAUGGAUCCACAUCUACGAAUUCGUUUUUGAUCUGAUAAUAUUCGAGGUCUGCAGAUCGGAAGAGCACACGU",88 ± 24.5 nM
23,"target 3 insU 3' of 22,insU 3' of 1 (mixed) RNA 1: CACCCGUGCAAAAUUGCAGGGGUCUAAAACGACCUGAAUAUUUCAGAUCAAA RNA 2: GGGAAUGGAUCCACAUCUACGAAUUCGUUUUUUGAUCUGAAAUAUUCAGGUCUUGCAGAUCGGAAGAGCACACGU",77.5 ± 17.5 nM
24,"target 3 U2G,U22A (mixed) RNA 1: CACCCGUGCAAAAUUGCAGGGGUCUAAAACGACCUGAAUAUUUCAGAUCAAA RNA 2: GGGAAUGGAUCCACAUCUACGAAUUCGUUAUUGAUCUGAAAUAUUCAGGGCUGCAGAUCGGAAGAGCACACGU",25.6 ± 2.5 nM
25,"target 3 insA 3' of 8,insC 3' of 7 (mixed) RNA 1: CACCCGUGCAAAAUUGCAGGGGUCUAAAACGACCUGAAUAUUUCAGAUCAAA RNA 2: GGGAAUGGAUCCACAUCUACGAAUUCGUUUUUGAUCUGAAAUAUAUCCAGGUCUGCAGAUCGGAAGAGCACACGU",67.5 ± 8 nM
26,"target 3 A5U,U7G (mixed) RNA 1: CACCCGUGCAAAAUUGCAGGGGUCUAAAACGACCUGAAUAUUUCAGAUCAAA RNA 2: GGGAAUGGAUCCACAUCUACGAAUUCGUUUUUGAUCUGAAAUAUGCUGGUCUGCAGAUCGGAAGAGCACACGU",60.5 ± 7.5 nM
27,"target 3 insA 3' of 21,insU 3' of 6 (mixed) RNA 1: CACCCGUGCAAAAUUGCAGGGGUCUAAAACGACCUGAAUAUUUCAGAUCAAA RNA 2: GGGAAUGGAUCCACAUCUACGAAUUCGUUUUAUGAUCUGAAAUAUUCUAGGUCUGCAGAUCGGAAGAGCACACGU",84 ± 25.5 nM
28,"target 3 U2G,G14A (mixed) RNA 1: CACCCGUGCAAAAUUGCAGGGGUCUAAAACGACCUGAAUAUUUCAGAUCAAA RNA 2: GGGAAUGGAUCCACAUCUACGAAUUCGUUUUUGAUCUAAAAUAUUCAGGGCUGCAGAUCGGAAGAGCACACGU",106 ± 42 nM
